Target: the molecule itself
Test: SEC-MALS

B1: DCAF1 817–1507, C-terminally His6-tagged (domain or fragment)
chain: not shown
stoichiometry N: 2

Reference: paper PMC3072279 (Biochemistry, 2011)
